# Laboratory results from the domain aggregation screens of Martell et al. (2025).
# Experiment: soluble fraction after stress (log2 fold change); higher = more stays soluble; pooled small domains, quantitative proteomics
# Conditions: stress: pH 4
# Procedure, shortened: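 Small protein domains from pooled custom libraries were exposed to pH 4, then quantified with high-throughput quantitative proteomics. The fold change in how much of each domain remains soluble is read as aggregation propensity. It is given as log2, with higher values meaning more stayed soluble.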
row,Sequence,soluble fraction (log2)
1,HMKRQATLQIGSKRFGMDDLYFKFTVPFEDSEKLGTATIEAYNLSPATRNSIKKGMPIILNAGYEGDI,-0.103
2,HMGVMTGAEFVGNTVASVERNLIIDTLKHTMGNRTTAANILGISIRTLRNKLKQYQNEGFDIPE,0.185
3,HMQEDKSKYLFQRGTAITVLRPAGIVRIGKERVDAVSNGSYIDRGVAVRVIEVEGTRVVVEPVPE,-0.151
4,HMEYRVRDKMTDILELLTEHRGRIALRDAFPTGTREELLAAFLALLELTKMQTVIVYQDRLYDDIQIVMK,0.22
5,HMEDKFEYQGELKSLIEPTSFSELVSALNVRDTLQAIIDFAMREEDTSGYEELKVRQNDYIQEYLNSIGNF,-1.28
6,HMEHAETDTRERILVVAERLFRQLGYQKTTVADIAKELRMSPANVYRFFDSKKSIHEGVARTL,0.275
7,HMYEPPTEDEKRVLSLLATRESIVRSDVDRLLGVSQSTANRILKQMIEKYLISQEGTGKNTKYIK,-0.113
8,HMTKQRSAIMNLLAERNTPLTAEEIGEAIAPSYPKLALSTVYRNLELFTNAGLLEKSFFQDGITRYSLTK,-0.242
9,HMIKRETNDNPVDPASLSLGDRVKILTLNQNGEIISLPDEKGLLQVQVGIMKIGVNVSDIMLI,-0.413
10,HMLTKSVLGNQIKVLRLEKGLSQEEFGAPVDLSRSAVSQIESGQMYPSLESIGKIVKYYSTSWDNLVG,-0.162
11,HMKTKTIMSTGAREDLVKMINEYYYSKNYIITEDNRIYNTKTEKFMDDLSVKFYRGRWKVIRN,0.0289
12,HMKMPNGYGSVYKLSGNRRKPWAARVTDGWVNDTKTKKSKQKYKFIGFYETRKEALLALADYNANP,0.22
13,HMFTNSTSSRQLTNSDDTLRLNISSQTRQMLPNGQPFGGSLSGKLLLVIYGATTRSIPAQTTPEKIVV,0.105
14,HMRLIALPSVTDISIRQAEATLMSIGIKVSSIQYAPSEYKDLVLEVKYRGQSIIQGAKIPEGSSVVLVAGN,-0.122
15,HMNQADNFNSLTKREKDVLLLVTQGESNKSIADKLVLSEVTVKSHLNSIFKKLNVTNRTQAVLVAMQMNLV,-0.85
16,HMLNLNILTDKEKFIAKLISRGLSDSLIAKELYISISTVRSHVNSIYGKTNIKNRSHLASSFLYFELGNLL,-0.0771
17,HMIPKDKQAWIALTYIYGVGRTTSMEILKKAQVGEEIRMKDLTEEEVTRIRNIIDKEYEVEGDLRRN,-0.762
18,HMVLTYYSVLGVKTDATTEEIKSTYKQLAIRNHPDRGGSEEVMKMINLAAEILSDPKSRKEYDLSLDA,-1.48
19,HMNQYIFVLNEKGARITSFVDNTIPKEELIALAKQDYPNAADYIYSADGDSMLDEFMRGKLYVNGQFVAA,-0.475
20,HMNYYYKDNQYWYVGFRYDERLVKEIKRFVGAGYNPENKEWYIPFTLPTVAPLQKWLHDNGFVEGMNYYP,-1.31
21,HMHPSNQELTKVLAQGSELVLAQKYIEASQIFTRVIEIDQTWAEAWNKRATVFYLLQNYEASQKDIDEV,-0.135
22,HMHMKTIEWDSLVLIMYKDMKYLKRINEGQSFHGKGGMLNYADLIGKTYGIRFGQYEIFEPSLEDIVMYG,-0.569
23,HMHLKRQEAINLGAYLLGAELRIHRLSLEELGSERIDEMLAAINYKTLDDLLADIGLGNRPARFVARQLG,-1.65
24,HMSASLPAAVEDPDLPYRVGAKLRHARWGEGLLVGIQREGSDVIATVHFASVGRKRLSLQYAHLEE,-0.785
25,HMDYTPIEVKDLPQAIQDALTKNFSEYTVKSAAYQEDEDGVKIYQVTVVDEEGTEANIFFTEKGE,0.00729
26,HMEAYLPVTVVSDGKILTGNLEKAGKNEKWLENVLSELKTDVKNTLLLTVDPKDGLIFYPKG,0.0447
27,HMSEYEYALHEFGITKKQSQRIFDRLSIADLEERINAIQTTLKQRSDIDNPAAYAWTVLNAE,-0.767
28,HMTAEASELRERIRAAMATLPPAQQRVIELAYFEGLTQREIAALLNEPLGTIKTRMRLGMRKLKDVL,0.367

row,Sequence,soluble fraction (log2)
1,HMNPNYIKKLREKNQLTQEYLAAQIGVSRPTYAQIEQGQRGLTVTEAKKMADIFSLALDDFLAEKN,-0.442
2,HMSAPQKWDGSLQDFIRFKQEAKTLMDNIPNKRLALNAILETISDGKMRKRLAKYDGPESALKSLELEFGN,0.0286
3,HMSDEVNTDKAFRAIDSTLNRNVKGIAPRDHTLLRNTMITYFKSNDYIDYDTMIQSTLENYKPTELEQDKM,0.135
4,HMGVSLKEIQENLSLIDDAAQKLASGQGTVDDAVGMGNAGKDIYDNIEGYVSSPKEFINGVLSSV,-0.823
5,HMAVSTFGRITASSLNVRSGPSTDHEKVGSLAAGRVVELLEESDGWYRIENGYISTEYVTIVDPSQ,-1.33
6,HMPAAFALLTDREREIAALIAQRLTNREIAEKLYLSEGSVKQYVNQLYAKLGIEGDTRTKRRRLAEQAK,0.12
7,HMGDWITGTVTRIADNGWGTFQPENAHNTVSIPPKMVADNQLKEADSIKIIAEPSPDGTKTFIKAISRE,0.214
8,HMATLQLPVPKITLYPGELIRSDHLTDQRFNARALYHSAVYKSREDIVGKVARRTLLPGQPIPVNALR,0.194
9,HMKEVKRDQVIEAARKLFHQFGFKKVSMDEIAKEAGVTKKTIYMYFESKEELLKYFIQEEISN,-0.44
10,HMSNGFFELKTSQQDELIDLIDSHTNFVRTKIEGELITAFLKLPMDAEEFNKLLFTNGIILSHLVKRK,-1.07
11,HMKEVVKVTITPSEKLKSQYPDALVSIDGKFYDLGILNNPVEFYMDKDHKISIIWSTAELVESFRI,-0.248
12,HMLSTNDYNENKNKLIKDFEIKFIIKHLKLNKGNVAATARSINFHPVSLRQKIAKLGIDVDEVMAG,-0.341
13,HMSDYVLLYSGLNTSDTTFLAYSFQEKGIRYKMPNPDEIEVRVQDVDQARRIAAGAQLGGQVS,-0.297
14,HMSDIATLVPGPTDAELAASALRGLDAALDADTPVRLSLGEPGGEVEVPRSVLAALARVLDSFAHGEGVTL,-0.443
15,HMGEIHAQIPGLVSHLFVKEGNTVQVEQKLFILEAMKMENEIDSPIQGTVKRIHIATGSKVEKGDLIMEIS,-0.117
16,HMPSPSTLAKVDPFLLVTNADSLLMARPDDSELRAAIITAHINLAKTNNSVDHYKEVLKIEPQNALANYN,0.0418
17,HMGFKLQRYTTFVVERLKKYQDTPAAQMHDLLKEHYPDFPAVSPKTVYNYVMKIRQEHGLPAV,≥ 0.43
18,HMPPALTELLSVRTNASGTIDYLLPDRSAGLRVENGSKYSGMVPDSIYRLVAIYEIKDAKEPSAYIYTI,-0.223
19,HMQRADYLILYYIKMQAEQHPDSKVYLADLAAVMGLKVTELSKAVEKLQDNGFVAWKTDREAGRTYVELS,-0.89
20,HMKMATITKRTNPSGAVVYRAQVRVKREGYPPYSESRTFSKKSLATEWAKRREFEIETNPDLLFN,0.0738
21,HMHTGLAELTDRERDVLRLIATGMTNAAIGSALAYSPSTIRADTVSIYRKLEVRGRAEAAAVAVAAGLTQP,0.123
22,HMELGWYVRLRRRELGLSVTALAEKAGMSQSYLSQIETGDRGNPSPESLRSLAEALEVSPRELESLV,0.286
23,HMPSSIEGIEKYLGSGMIRGIGAVYAKRLVKQFGKDVFDIIEETPERLREVEGIGPIRAARIISGWADQ,-0.154
24,HMGQELTMPDLKSMSRSNAEEKLKKMGLKLGAVFEENAKEPAGTVINQDPRSGSKITKGQTVDITVSLGEK,0.0104
25,HMFLDKDTLNQLYRFGIALTGNEQDSQDVLHTAIERFLRNKPQQINQQAAYIRTIMRNYWYDELRKLKTQ,-0.0981
26,HMAQSEDLMVMAQRILGGPEAQSFFQAEATRQGLAGFLPEPIPDFLQRLERKLSGSVGSATAHAMVAQTMG,-0.279
27,HMYLGRKATLLSSISGEKMGNAEVLADGNLMSIYVKSLTGEPLSYGSTVLIIKHSEDQNFYLVQN,-0.65
